The values that follow come from patent US20040052799A1, “Nucleic acid and amino acid sequences relating to Helicobacter pylori for diagnostics and therapeutics” (Astra Aktiebolag, priority 1996, published 2004).

Substrate in data set [1]: N[C@@H](CC=O)C(=O)O
Kind of data set: Asd assay, reverse reaction, NADPH formation. The note with it: other: pH 7.5. The data set is classed as biochemical, E. coli.

Substrate in data set [2]: N[C@H](CCC(=O)O)C(=O)O
Kind of data set: Glutamate racemase activity, conversion of D-glutamate to L-glutamate (two enzyme and single enzyme coupled assays). In kind it is biochemical, H. pylori. The note with it: other: purified recombinant enzyme; 37.0 °C. How it is done: The activity of glutamate racemase, interconversion of the enantiomers of glutamic acid, was measured using D-glutamic acid as substrate. The method of Gallo and Knowles (Gallo, K. A. and Knowles, J. R., 1993, Biochmistry 32, 3981-3990) that was used to measure the glutamate racemase activity of Lactobacillus fermenti was adapted for the measurement of glutamate racemase activity of the H. pylori murI gene product isolated as a recombinant protein from E. coli. […] Initial rates were determined by following the increase in absorbance at 500 nm in a reaction volume of 200 μl containing 50 mM Tris-HCl, pH 7.8, 4% v/v glycerol, 10 mM NAD, 2 mM INT, 60 Units/ml L-glutamate dehydrogenase, 5 Units/ml diaphorase, and varying concentrations of either substrate (from 0.063 mM to 250 mM D-glutamic acid) or purified enzyme (from 1 μg to 50 μg). After a preincubation of all reagents except either the substrate (D-glutamic acid) or the enzyme (murI gene product) for a period of 5 minutes, reactions were initiated by adding the missing ingredient (i.e., the enzyme or the subtrate, as required), and the increase in optical density at 500 nm was measured in a Microplate Spectophotometer System (Molecular Devices, Spectra MAX 250). Measurements were followed for 20 minutes, and initial velocities were derived by calculating the maximum slope for the absorbance increases. […]

B1: E. coli Asd (Escherichia coli K-12) (protein)
chain: MKNVGFIGWRGMVGSVLMQRMVEERDFDAIRPVFFSTSQLGQAAPSFGGTTGTLQDAFDLEALKALDIIVTCQGGDYTNEIYPKLRESGWQGYWIDAASSLRMKDDAIIILDPVNQDVITDGLNNGIRTFVGGNCTVSLMLMSLGGLFANDLVDWVSVATYQAASGGGARHMRELLTQMGHLYGHVADELATPSSAILDIERKVTTLTRSGELPVDNFGVPLAGSLIPWIDKQLDNGQSREEWKGQAETNKILNTSSVIPVDGLCVRVGALRCHSQAFTIKLKKDVSIPTVEELLAAHNPWAKVVPNDREITMRELTPAAVTGTLTTPVGRLRKLNMGPEFLSAFTVGDQLLWGAAEPLRRMLRQLA
notes: made in house; host or cells: E. coli HMS174 pLysS, pET28b
In the case of B1, the Michaelis-Menten constant (Km) in data set [1] amounted to 104 µM.

B2: H. pylori glutamate racemase (murI gene product) (Helicobacter pylori J99) (protein)
chain: MKIGVFDSGVGGFSVLKSLLKARLFDEIIYYGDSARVPYGTKDPTTIKQFGLEALDFFKPHEIELLIVACNTASALALEEMQKYSKIPIVGVIEPSILAIKRQVEDKNAPILVLGTKATIQSNAYDNALKQQGYLNISHLATSLFVPLIEESILEGELLETCMHYYFTPLEILPEVIILGCTHFPLIAQKIEGYFMGHFALPTPPLLIHSGDAIVEYLQQKYALKNNACTFPKVEFHASGDVIWLERQAKEWLKL
notes: made in house; host or cells: E. coli BL21(DE3) carrying pET-23-murI and pACYC-groE (GroES/GroEL co-expressed)
In the case of B2, the Km in data set [2] turned out to be 100 µM.

Usually Km stands for the substrate concentration at which the rate is half of its maximum.
